The supplement of paper PMC10126150
± gives the standard deviation of the averaged measurements.

test system: ATP; experiment: switch fluorescence ratio, 500 uM ATP over buffer (Cy3 cluster intensity, sum of 5 cycles each) (fold (ratio)); higher = stronger signal-on switching upon ATP binding; sequences stand for … in TCGTCGGCAGCGTCAGATGTGTATAAGAGACAGTTTTTTTTTTTTTTTTTTTTTTTTT…TC; conditions: aptamer strand: ATP DNA aptamer (quencher-CACCTGGGGGAGTATTGCGGAGGAAGG + anchor), 100 nM annealed; ATP concentration: 500 uM
Outline: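 The quencher-labelled ATP aptamer, at 100 nM, was annealed to Cy3-labelled switching-strand clusters on a modified Illumina MiSeq flow-cell. The clusters were imaged in selection buffer, then after 15 min with 500 uM ATP at 22 °C, and this buffer/ATP cycle ran five times with NaOH stripping and re-annealing between runs. Per-cluster fluorescence ratios, summed target-cycle over summed buffer-cycle Cy3 intensity, were averaged per switch-domain sequence. Clusters outside 100-1000 RFU were excluded.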
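Also: ATP exposure 15 min at 22 °C before imaging.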

In order of falling switch fluorescence ratio:
1. CCGAAGAGTC  1.66 ± 0.28
2. TTACGGCCAA  1.26 ± 0.31
3. CGGAATAGCT  1.22 ± 0.024
4. AGTACGCAAG  1.12 ± 0.039
5. AAAATTTACG  1.1 ± 0.16
6. ACGGAATTTT  1.09 ± 0.08
7. GAGGGGACTT  1.09 ± 0.13
8. ATATTGACGG  1.09 ± 0.12
9. CCGGGGGGTT  1.09 ± 0.14
10. GCCAGTATGT  1.08 ± 0.086
11. GTTATCTTTC  1.07 ± 0.029
12. AAAGCTTTTC  1.07 ± 0.01
13. TCGCGGGAGA  1.05 ± 0.023
14. TCACCTTGGA  1.05 ± 0.096
15. TGCAGGTAGG  1.04 ± 0.036
16. TTGGGGGCGA  1.036 ± 0.0035
17. TATGACGACG  1.04 ± 0.045
18. TATGGGATTA  1.04 ± 0.064
19. ACTGGTTTGG  1.04 ± 0.063
20. GAGCACGGGT  1.04 ± 0.053
21. TAAGGGCGCG  1.03 ± 0.035
22. GATGTAGCTA  1.033 ± 0.00083
23. AGACTGGGGC  1.03 ± 0.03
24. ATTGGAACGC  1.03 ± 0.012
25. TTGCGGGGGG  1.03 ± 0.032
26. AGGGCGTCTA  1.015 ± 0.003
27. TGGGTGGAGG  1.02 ± 0.043
28. AAATAATGGT  1.02 ± 0.041
29. CAATGGGATA  1.02 ± 0.032
30. CCGGGTTGTA  1.02 ± 0.046
31. AGTCGGTTAA  1.02 ± 0.046
32. ATCTAGCGGA  1.02 ± 0.022
33. GATACTCTTA  1.021 ± 0.0081
34. CATTTGGATG  1.02 ± 0.013
35. GATAATAATG  1.02 ± 0.0061
36. TCGGTTTGGA  1.019 ± 0.0063
37. TGGTCGTTTT  1.01 ± 0.04
38. TTTTCGTGAA  1.01 ± 0.021
39. CGGTGGCGTC  1.01 ± 0.048
40. AAACGATATT  1.015 ± 0.0026
41. CGAATCTTGT  1.01 ± 0.016
42. AGTACTAAAG  1.01 ± 0.033
43. GCATCATTTA  1.009 ± 0.0059
44. AGTAAGAGGG  1.01 ± 0.012
45. AGTTAACCGG  1.006 ± 0.0027
46. GTTAACCGGA  1.01 ± 0.012
47. GGGCCGGGGC  1.01 ± 0.024
48. TGATGGATAA  1.01 ± 0.027
49. AGGGTGTGAC  1.01 ± 0.036
50. AAGTGCAGCC  1.01 ± 0.023
51. GGGCGGTGTC  1.01 ± 0.042
52. TGGGATTTAG  1 ± 0.044
53. GCAGTATGGG  1 ± 0.028
54. GGGTAGCCGG  1 ± 0.0042
55. TGTGTCGCGG  1 ± 0.033
56. CATTAGTTTC  1 ± 0.028
57. GGATGCGGGT  1 ± 0.03
58. TGATAGGAAG  1 ± 0.019
59. TACAGAATGA  1.003 ± 0.0041
60. AAAGACAAAT  0.999 ± 0.042
61. TGAAGGGGAC  0.998 ± 0.015
62. TAATCAGTGC  0.998 ± 0.068
63. TTTCGTTTGC  0.998 ± 0.046
64. ATAGTATGGT  0.9976 ± 0.0089
65. ACTGGTTTAG  0.9975 ± 0.0095
66. ATATAGGGGG  0.997 ± 0.014
67. AATTTGTTGT  0.996 ± 0.025
68. GGGACACGGC  0.996 ± 0.059
69. GCGGGCATTT  0.995 ± 0.015
70. GATAGGGAGG  0.993 ± 0.016
71. CATCGGCTGA  0.992 ± 0.023
72. CGAGTCAGTT  0.992 ± 0.029
73. TTTGGATATG  0.992 ± 0.037
74. CAGAATGCGG  0.991 ± 0.023
75. GGACTCCCGG  0.99 ± 0.011
76. TTATCTCGTA  0.99 ± 0.013
77. TTGGCATGGG  0.99 ± 0.015
78. TAATGGGGGG  0.989 ± 0.037
79. ATTTCTGGGT  0.9885 ± 0.0082
80. CATGGGACGT  0.988 ± 0.071
81. GGTGTTTTCA  0.988 ± 0.026
82. GACTTAGTTG  0.987 ± 0.0068
83. TAGTGAAAGA  0.9855 ± 0.0031
84. TAGGACCTGT  0.9849 ± 0.0073
85. AAGTGTGGGC  0.984 ± 0.023
86. AAAAGGATTG  0.982 ± 0.04
87. AAGAGAGGGA  0.981 ± 0.041
88. AATGTTTGGG  0.981 ± 0.021
89. CGGGTTATGG  0.981 ± 0.049
90. AGACACGAAT  0.9811 ± 0.0068
91. AATAGGCATG  0.979 ± 0.0098
92. TCCGGTTTTG  0.979 ± 0.013
93. AAGGTTAATA  0.976 ± 0.08
94. TATGTGAAAA  0.9747 ± 0.006
95. AATCGTGGGG  0.975 ± 0.017
96. GGTCATCTTG  0.975 ± 0.02
97. GAGTAGGAGG  0.974 ± 0.051
98. TTGTGCCCGG  0.9727 ± 0.009
99. TGGATTAGAG  0.9672 ± 0.0022
100. TTAATTCGTC  0.949 ± 0.021
